Reference: patent US11932673B2, “Sodium channel inhibitors” (priority 2017, dated 2024)

Tested on: in vitro rat BBB model system
Assay type: in vitro ADME
Conditions: Fab format, oligoclonal mixes of 3 Fabs at final 2 μM, controls 1 μM, blood side to brain side, 37° C.
Experimental: In order to assess the ability of these KnotBodies to cross the BBB, a ready to use in vitro rat BBB model system (Pharmacocell, Cat. No. RBT-24H) was used. In this model system rat brain endothelial cells were co-cultured with pericytes and astrocytes to mimic the in vivo BBB anatomy (Nakagawa, S. et al. (2009) Neurochem. Int. 54, 253-263). The in vitro rat BBB kit was cultured according to manufacturer's instructions and transendothelial electrical resistance (TEER) was measured prior to testing of KnotBodies to verify the integrity of the barrier. […] 21 KnotBody Fabs were tested for their ability to cross the in vitro BBB model system. […] The parent KnotBody KB_A12 was used as a negative control. Both positive and negative controls were expressed and purified in the Fab format as described above. […] The concentration of transcytosed Fabs in the lower chamber (referred as brain side) was determined using a sandwich ELISA. In this ELISA, Fabs were captured using an anti-CH1 antibody (provided by Hybridoma Reagent Laboratories) and detected using rabbit anti-human IgG Kappa light chain antibody (Abcam, Cat. No. ab195576) or anti-human IgG Lambda light chain antibody (Abcam, Cat. No. ab124719) followed by europium conjugated anti-rabbit antibody (Perkin Elmer, Cat. No. AD0105). […]

B1: KB_A12: EETI-II VL CDR2 KnotBody, D1A12 VH, VL SEQ ID NO: 105/373; parental/isotype control (antibody, V domains shown)
VH: EVQLVESGGGLVRPGGSLRLSCAASGFTFSSYAMSWVRQAPGKGLEWVSAISGSGGSTYYADSVKGRFTISRDNTKNSLYLQMTSLRADDTAFYYCVKDFGPGYGTGWFDYWGPGTLVTVSS
VL: QSVLTQPPSVSEAPRQRVTITCSGSSSNIGNNAVNWYQQLPGKAPKLLIYAAGRCPRILMRCKQDSDCLAGCVCGPNGFCGANSGVSDRFSAAKSGTSASLAINGLRSEDEADYYCAAWDDSLNGYVFGTGTKLTVLG
% transcytosis after 6 h: 0.1%
